In article PMC10906223 (JCI Insight, 2024):
Where “and” joins values, the source holds several entries; their conditions need not be identical. Equal entries are not always repeated.

Tests used:
[1] = system: murine dispersed islet cells; assay: Glucagon secretion from murine dispersed islet cells; assay type: cell-based, mouse; settings: for Secretion of glucagon: E + Rhy (2.5 µM), Figure 1H; for Secretion of glucagon / Relative secretion of glucagon: listed as E; for Relative secretion of glucagon: Ephrin-A5 Fc (E), one value per mouse, Figure 1F
Experimental: (§1) Pancreata of nondiabetic C57BL/6J mice were digested using collagenase P (Roche Diagnostics, catalog 11213873001), and islets were manually picked up using a stereomicroscope (ZEISS Stemi 305). […] Isolated mouse islets or provided human islets were dispersed as described ([28]). Briefly, 100–120 islets were washed 2 times using modified HBSS, then dispersed in 600 μL Accutase (Innovative Cell Technologies, catalog AT-104) by gently pipetting up and down for 7 minutes at 37°C. […] Following refreshing of KRBH, cells were dispensed in 8 microfuge tubes (2,000 cells/tube) and treated with WCDD301, preclustered Ephrin-A5 Fc, or preclustered Fc in the presence or absence of the competitive inhibitor of EphA4 receptor, rhyncophylline ([60]) (MilliporeSigma, catalog SML2345). In the presence or absence of these effectors, secretion assay was performed sequentially as shown in Supplemental Table 5. […] Preclustering of Ephrin-A5 Fc was done by mixing Ephrin-A5 Fc or Fc alone (BioLegend, catalog 790102) with anti-Fc antibody (Invitrogen, catalog A16086) (1:10 molar ratio) 20 minutes before treatment ([62]). […] Shedding of cleaved EphA4 was measured from the cell culture medium. Experiments were performed by dispersion of 200 islets, and EphA4 levels in media were measured by EphA4 ELISA (ABclonal, catalog RK06572).

[2] = system: murine dispersed islet cells; assay: Insulin secretion from murine dispersed islet cells; assay type: cell-based, mouse; settings: Ephrin-A5 Fc (E), one value per mouse, Figure 1G, listed as E
Experimental: as §1

[3] = system: human donor dispersed islet cells; assay: Somatostatin secretion from non-diabetic human donor dispersed islet cells; assay type: cell-based; settings: Ephrin-A5
Experimental: as §1
(§2) The Integrated Islet Distribution Program provided us human donor islets with their characteristics (Supplemental Table 6). Islets were centrifuged at 500g for 3 minutes, resuspended in CMRL 1066 medium (Gibco, catalog 1150-037) containing 11 mM glucose, and rested in an incubator overnight.
(§3) For the hormone secretion assay, islets or dispersed islet cells were adapted in KRBH buffer containing 11 mM glucose for 1 hour. Then, after 2 washes in HBSS containing 11 mM glucose, islets or cells were treated in the following sequential order in the presence or absence of WCDD301: incubation in KRBH (1 mM glucose, 30 minutes) followed by medium collection, incubation in KRBH (11 mM glucose, 30 minutes) followed by medium collection.

[4] = system: isolated islets of donors with T1D; assay: Glucagon secretion from isolated islets of donors with T1D; assay type: cell-based, human; settings: isolated islets, T1D donors, one value per donor, Figure 2G, listed as E
Experimental: as §2, §3

[5] = system: dispersed islet cells of donors with T1D; assay: Glucagon secretion from dispersed islet cells of donors with T1D; assay type: cell-based, human; settings: dispersed islet cells, T1D donors, one value per donor, Figure 2H, listed as E
Experimental: as §1, §2, §3

[6] = system: isolated islets of donors with T1D; assay: Insulin secretion from isolated islets of donors with T1D; assay type: cell-based, human; settings: isolated islets, T1D donors, one value per donor, Figure 2I, listed as E;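 note: insulin concentration in collected medium by Lumit immunoassay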
Experimental: as §2, §3

[7] = system: dispersed islet cells of donors with T1D; assay: Insulin secretion from dispersed islet cells of donors with T1D; assay type: cell-based, human; settings: dispersed islet cells, T1D donors, one value per donor, Figure 2J;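 note: insulin concentration in collected medium by Lumit immunoassay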
Experimental: as §1, §2, §3

[8] = system: human dispersed islet cells; assay: Immunofluorescence: F-actin intensity in glucagon+ human dispersed islet cells; assay type: cell-based; settings: human cells; individual values; Figure 3E; listed as E;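 note: ImageJ intensity within ROI drawn around each glucagon+ cell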
Experimental: (§4) Coverslips were treated with WCDD301, preclustered Ephrin-A5 Fc, or preclustered Fc in the following sequential order: KRBH (11 mM glucose, 30 minutes), KRBH (1 mM glucose, 60 minutes), KRBH (1 mM glucose, 30 minutes), and KRBH (11 mM glucose, 60 minutes). After treatment, coverslips were washed once in PBS, fixed in 2% paraformaldehyde in PBS (30 minutes), and again washed in PBS. […] Following wash in PBS, coverslips were incubated in a mixture of Alexa Fluor 555 Phalloidin (Cell Signaling Technology, catalog 8953) and secondary antibodies (goat anti-rabbit Alexa Fluor 488, catalog A-21094, 1:1,000, Molecular Probes; and goat anti-mouse Alexa Fluor 633, catalog A21052, 1:1,000, Life Technologies) for 1 hour at RT. Both primary and secondary antibodies were diluted in blocking buffer containing 0.05% Tween 20. Coverslips were washed using PBS and counterstained by using DAPI (1:1,000) for 10 minutes. Following 2 washes in PBS, coverslips were mounted on glass slides using ProLong Glass Antifade Mountant (Invitrogen, catalog P36980). Images were captured using the Zeiss LSM880 microscope with a Plan-Apochromat 63× 1.4 NA objective lens by setting dual-band dichroic/filter for 405, 488, 561, and 633 nm laser excitation. For each slide, 25–30 fields of view were scanned, and in each field of view, 3–5 cells were imaged. […] Values of intensity were compared among groups using 1-way ANOVA, α = 0.05.

[9] = system: mouse dispersed islet cells; assay: Immunofluorescence: F-actin intensity in glucagon+ mouse dispersed islet cells; assay type: cell-based; settings: mouse cells; individual values; Figure 3F; listed as E;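 note: ImageJ intensity within ROI drawn around each glucagon+ cell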
Experimental: as §4

[10] = system: human dispersed islet cells; assay: Immunofluorescence: EphA4 intensity in glucagon+ human dispersed islet cells; assay type: cell-based; settings: human cells; individual values; Figure 3G; listed as E;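 note: ImageJ intensity within ROI drawn around each glucagon+ cell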
Experimental: as §4

[11] = system: mouse dispersed islet cells; assay: Immunofluorescence: EphA4 intensity in glucagon+ mouse dispersed islet cells; assay type: cell-based; settings: mouse cells; individual values; Figure 3H; listed as E;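 note: ImageJ intensity within ROI drawn around each glucagon+ cell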
Experimental: as §4

B1: Ephrin-A5 Fc: recombinant mouse Ephrin-A5 Fc; natural ligand of EphA4 receptors (protein)
chain: QDPGSKVVADRYAVYWNSSNPRFQRGDYHIDVCINDYLDVFCPHYEDSVPEDKTERYVLYMVNFDGYSACDHTSKGFKRWECNRPHSPNGPLKFSEKFQLFTPFSLGFEFRPGREYFYISSAIPDNGRRSCLKLKVFVRPTNSCMKTIGVHDRVFDVNDKVENSLEPADDTVHESAEPSRGEN
modifications: left off: Fc, end not stated, kept
notes: recombinant mouse Ephrin-A5 Fc; natural ligand of EphA4 receptors
Effect on arginine-stimulated glucagon secretion ([1]; 1 mM and 11 mM glucose, Arg 25 mM, 301 3 µM, E 4 µg/mL, Supplemental Figure 2): its effect was suppressed | Secretion of glucagon ([1]; Glucose (1 mM)): 0.8 and 0.85 and 0.95 and 1.05 and 1 | Secretion of glucagon ([1]; Glucose (11 mM)): 1.1 and 1.07 and 1.2 and 1.05 and 1.15 | Relative secretion of glucagon ([1]; Glucose (1 mM)): 0.85 and 0.95 and 1.05 and 0.7 and 0.8 | Relative secretion of glucagon ([1]; Glucose (11 mM)): 1.01 and 0.8 and 0.9 and 0.85 and 0.94 | Relative secretion of insulin ([2]; Glucose (1 mM)): 0.75 and 0.2 and 0.32 and 0.45 and 0.69 | Relative secretion of insulin ([2]; Glucose (11 mM)): 1.02 and 1 and 0.85 and 0.8 and 0.96 | Somatostatin secretion (Supplemental Figure 4D; quantity not given) [3]: 1908.4 and 2981.9 and 2200.0 | Secretion of glucagon ([4]; 1 mM glucose): 40.65 and 55.72 | Secretion of glucagon ([4]; 11 mM glucose): 37.25 and 40.79 | Secretion of glucagon ([5]; 1 mM glucose): 14.105 and 25.56 | Secretion of glucagon ([5]; 11 mM glucose): 38.15 and 32.58 | Secretion of insulin ([6]; 1 mM glucose): 0.075 and 0.07 | Secretion of insulin ([6]; 11 mM glucose): 0.11 and 0.05 | Secretion of insulin ([7]; 1 mM glucose): 0.06 | Secretion of insulin ([7]; 11 mM glucose, listed as E): 0.10 and 0.05 | F-actin intensity [8]: 9.8 and 7.6 and 4.7 and 8.3 and 7.5 and 5.1 and 5.9 and 5.2 | F-actin intensity [9]: 8.2 and 11.3 and 9.4 and 8.4 and 9.8 and 8.6 and 5.2 and 8.9 and 7.7 | EphA4 intensity [10]: 45.7 and 17.5 and 5.4 and 39.9 and 12.3 and 5.9 and 20.4 and 7.4 and 4.4 | EphA4 intensity [11]: 18.2 and 16.2 and 19.0 and 16.0 and 17.1 and 20.0 and 17.0 and 15.6 and 21.0 and 18.0 and 33.1 and 50.6 and 24.4 and 25.7
